Positions count from the first letter of the chain named. In names and notes the source's numbering stands. Several values for one entry are separate records, joined by “and”; a condition that tells them apart may be missing. Equal values may be shown once.

The text below walks through data of US20200270339A1 (CEPHALON, published 2020).

The target in experiment [1] is T1, human IL-15 complexed with the IL-15 Receptor-alpha (human, UniProt P40933 49-162). Kind of experiment: cell-based or functional assay.
Target sequence in this assay (P40933 49-162 limits assumed, one chain of several): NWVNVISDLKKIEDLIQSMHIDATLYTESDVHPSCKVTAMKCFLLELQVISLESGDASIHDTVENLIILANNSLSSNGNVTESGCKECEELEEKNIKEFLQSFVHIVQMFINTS
Experiment [2] concerns the target T1, human IL-15 complexed with the IL-15 …. Kind of experiment: cell-based or functional assay. The source holds these as a separate data set.
Target sequence in this assay (P40933 49-162 limits assumed, one chain of several): as above
Experiment [3] shares this target. The experiment can be described thus: cell-based or functional assay. This is another data set of the same source.
Experiment [4] has the same target. Kind of experiment: SPR. A general note: In SPR one partner is held on a chip, and binding of the other changes the refractive index at the surface.
Target sequence in this assay (P40933 49-162 limits assumed, one chain of several): as above
Experiment [5] shares this target. The experiment can be described thus: SPR. The source holds these as a separate data set.
Target sequence in this assay (P40933 49-162 limits assumed, one chain of several): as above
For experiment [6] the target is unchanged. Kind of experiment: SPR. The source holds these as a separate data set.
Target sequence in this assay (P40933 49-162 limits assumed, one chain of several): as above
The target is the same in experiment [7]. Kind of experiment: SPR. The source holds these as a separate data set.
Target sequence in this assay (P40933 49-162 limits assumed, one chain of several): as above
Experiment [8] shares this target. The experiment can be described thus: SPR. The source holds these as a separate data set.
Experiment [9] deals with T2, IL-15 E98A co-expressed with IL-15Rα (human, UniProt P40933 49-162).
T2 construct: Purified alanine scan construct, expressed in EXPI293F cells with human IL-15Rα
T2 sequence (P40933 49-162 E146A limits assumed): as the sequence (P40933 49-162 limits assumed, one chain of several) above, with E98A counted along it
The experiment can be described thus: SPR. The method, then: (§1) All interactions were measured at 25° C. and the data collection rate was set to 10 Hz. Data from FC2-1 was used for analysis. The resultant sensorgrams were analysed by creating two custom report points, each calculated for a 5 s window starting either 10 s after injection of the sample (‘early binding’) or 10 s before the end of dissociation (‘late binding’). These values were subtracted from the values for the untransfected control and a relative dissociation rate was estimated by first, taking a ratio of these two custom report points (‘late binding’/‘early binding’) and then, taking the resultant values as a fraction of the value calculated for wild-type human IL-15 complexed with the IL-15 Receptor-alpha (data not shown).
(§2) A Protein A Sensor Chip (GE Healthcare) was used to capture Antibody 70a onto the second flow cell to a capture level of 150-200 RU. Purified IL-15 alanine scan constructs were diluted to 10 μg/mL in HBS-EP+ and then a 2-fold dilution series was made. Binding was measured by injection of 45 μL of each dilution at a flow rate of 30 μL/min across both flow cells and allowing 600 s of dissociation time. The chip surface was regenerated between cycles with a 10 sec pulse of 50 mM sodium hydroxide. The running buffer used was HBS-EP+ (GE Healthcare) All interactions were measured at 25° C. and the data collection rate was set to 10 Hz. Data from Fc2-1 was used for analysis and generated sensorgrams were fitted using a 1:1 Langmuir equation (using local Rmax fitting) to determine KD. […] Antibody 70a had low binding to mutated IL-15 with a Q108A substitution.

For experiment [10], the target named is T3, IL-15 Q101A co-expressed with IL-15Rα (human, UniProt P40933 49-162).
T3 construct: Purified alanine scan construct, expressed in EXPI293F cells with human IL-15Rα
T3 sequence (P40933 49-162 Q149A limits assumed): as the sequence (P40933 49-162 limits assumed, one chain of several) above, with Q101A counted along it
The experiment can be described thus: SPR. The protocol:
as §1, §2

Experiment [11] concerns the target T4, IL-15 H105A co-expressed with IL-15Rα (human, UniProt P40933 49-162).
T4 construct: Purified alanine scan construct, expressed in EXPI293F cells with human IL-15Rα
The experiment can be described thus: SPR. The method, then: as §1, §2

The target in experiment [12] is T1, human IL-15 complexed with the IL-15 …. The experiment can be described thus: cell-based or functional assay. The source holds these as a separate data set.
For experiment [13], the target named is T5, uncomplexed IL-15 Receptor α (human).
T5 construct: also called IL-15Rα; IL15Rα
T5 chain: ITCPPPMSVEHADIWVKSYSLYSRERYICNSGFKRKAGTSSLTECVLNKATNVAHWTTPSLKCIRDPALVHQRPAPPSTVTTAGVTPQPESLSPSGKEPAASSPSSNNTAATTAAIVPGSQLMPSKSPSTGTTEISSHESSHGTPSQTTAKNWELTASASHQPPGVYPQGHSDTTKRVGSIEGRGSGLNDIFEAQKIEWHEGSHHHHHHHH
The experiment can be described thus: SPR, antibody captured on Protein A chip.

In another experiment the target is IL-2 (UniProt P60568 21-153). The experiment can be described thus: SPR, antibody captured on Protein A chip.
Chain of IL-2 (P60568 21-153 limits assumed): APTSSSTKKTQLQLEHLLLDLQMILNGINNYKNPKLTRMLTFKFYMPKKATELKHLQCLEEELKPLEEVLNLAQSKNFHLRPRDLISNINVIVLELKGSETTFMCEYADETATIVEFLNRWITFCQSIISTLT
In another experiment the target is T6, IL-4 (UniProt P05112 25-153).
T6 sequence (looked up): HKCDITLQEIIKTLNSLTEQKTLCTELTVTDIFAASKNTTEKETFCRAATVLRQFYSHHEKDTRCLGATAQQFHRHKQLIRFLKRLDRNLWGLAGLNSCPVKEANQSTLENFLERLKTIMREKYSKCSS
Kind of experiment: SPR, antibody captured on Protein A chip.

A further experiment deals with T7, IL-7 (UniProt P13232 26-177).
T7 sequence (looked up): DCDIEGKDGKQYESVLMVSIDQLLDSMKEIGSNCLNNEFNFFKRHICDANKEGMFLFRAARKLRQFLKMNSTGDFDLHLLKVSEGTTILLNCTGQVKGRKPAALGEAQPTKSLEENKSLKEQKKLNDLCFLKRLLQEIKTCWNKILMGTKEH
The experiment can be described thus: SPR, antibody captured on Protein A chip.

Another experiment deals with IL-9 (UniProt P15248 19-144). The experiment can be described thus: SPR, antibody captured on Protein A chip.
Chain of IL-9 (P15248 19-144 limits assumed): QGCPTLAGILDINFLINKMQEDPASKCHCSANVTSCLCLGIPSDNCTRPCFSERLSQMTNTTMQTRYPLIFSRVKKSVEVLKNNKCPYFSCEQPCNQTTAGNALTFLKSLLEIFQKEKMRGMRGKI
The target of another experiment is IL-21 (UniProt Q9HBE4 30-162, limits assumed). The experiment can be described thus: SPR, antibody captured on Protein A chip.
Chain of IL-21 (Q9HBE4 30-162 limits assumed): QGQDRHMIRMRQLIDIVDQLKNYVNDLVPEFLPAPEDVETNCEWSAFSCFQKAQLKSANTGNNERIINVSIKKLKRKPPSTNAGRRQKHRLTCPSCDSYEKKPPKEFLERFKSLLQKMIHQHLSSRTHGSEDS
Experiment [14] concerns the target T1, human IL-15 complexed with the IL-15 …. Kind of experiment: subsequent studies, method not restated; subsequent studies; average; analyte form and method not restated.

T4 sequence (P40933 49-162 H153A limits assumed): as the sequence (P40933 49-162 limits assumed, one chain of several) above, with H105A counted along it

B1: Antibody 11 (antibody, V domains shown)
VH: QVQLQESGPGLVKPSGTLSLTCAVSGGSISSSNWWSWVRQPPGKGLEWIGEIYHYGYTNYNPSLKSRVTISVDKSKNQFSLKLISVTAADTAVYYCAREGIGWPSFDYWGQGTLVTVSS
VL: SSELTQDPAASVALGQTVRITCQGDTLRNYYASWYQQKPGQAPILVIYGKNNRPSGIPDRFSGSSSGNTASLTITGAQAEDEADYYCNSRDSSGKNLVFGGGTKLTVLG
Take B1: in experiment [1], the “fold improvement of IC50 in the NK-92 cell proliferation assay compared to Antibody 4” value is ≥ 10 fold. In addition, in experiment [2], the “NK-92 cell proliferation assay, potency (IC50)” value worked out at 0.0074 nM. Also, the “IC 50 (NK-92) in pM” value in experiment [3] stood at 6.3 pM.

B2: VL_K051H (antibody, V domains shown)
VH: B1 VH with Y55S, Y57N
VL: SSELTQDPAASVALGQTVRITCQGDTLRNYYASWYQQKPGQAPILVIYGHNNRPSGIPDRFSGSSSGNTASLTITGAQAEDEADYYCNSRDSSGKNLVFGGGTKLTVL
notes: Antibody 4 with one substitution; also called ANTIBODY 31
Take B2: the Kd (usually the free concentration of one partner at which half of the binding sites on the other are occupied at equilibrium, for simple one-to-one binding) in [4] stood at 0.73 nM.

B3: VL_G050S (antibody, V domains shown)
VH: B1 VH with Y55S, Y57N
VL: B2 VL with G49S, H50K
notes: Antibody 4 with one substitution; also called ANTIBODY 29
On to B3, for which, in [5], binding was put at a Kd of 1.58 nM.

B4: VL_N030S (antibody, V domains shown)
VH: B1 VH with Y55S, Y57N
VL: B2 VL with N29S, H50K
notes: Antibody 4 with one substitution; also called ANTIBODY 51
As for B4, in [6], the Kd is 2.41 nM.

B5: VL_D092S (antibody, V domains shown)
VH: B1 VH with Y55S, Y57N
VL: B2 VL with H50K, D91S
notes: Antibody 4 with one substitution; also called ANTIBODY 16
B5 returned a Kd in [7] of 2.15 nM.

B6: Antibody 70a (antibody, human IgG1, lambda)
heavy: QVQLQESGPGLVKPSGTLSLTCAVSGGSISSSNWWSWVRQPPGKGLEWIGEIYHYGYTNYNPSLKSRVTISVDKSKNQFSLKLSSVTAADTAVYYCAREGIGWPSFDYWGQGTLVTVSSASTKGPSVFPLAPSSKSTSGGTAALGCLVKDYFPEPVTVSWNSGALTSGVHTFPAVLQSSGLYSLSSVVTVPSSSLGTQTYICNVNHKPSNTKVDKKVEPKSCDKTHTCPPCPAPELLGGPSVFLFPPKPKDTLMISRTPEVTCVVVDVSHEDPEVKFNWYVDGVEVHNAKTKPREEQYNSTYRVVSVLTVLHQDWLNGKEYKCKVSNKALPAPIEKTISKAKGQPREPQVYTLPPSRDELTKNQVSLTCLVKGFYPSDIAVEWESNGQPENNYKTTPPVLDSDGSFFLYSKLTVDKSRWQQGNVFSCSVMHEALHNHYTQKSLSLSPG
light: SSELTQDPAASVALGQTVRITCQGDTLRSYYASWYQQKPGQAPILVIYGKNNRPSGIPDRFSGSSSGNTASLTITGAQAEDEADYYCNSRDLSGKNLVFGGGTKLTVLGQPKAAPSVTLFPPSSEELQANKATLVCLISDFYPGAVTVAWKADSSPVKAGVETTTPSKQSNNKYAASSYLSLTPEQWKSHRSYSCQVTHEGSTVEKTVAPTECS
notes: Heavy S54Y + N56Y + I82aS, light N30S + S93L
On to B6, for which the Kd in experiment [8] was 0.133 nM and 0.149 nM. For the same molecule, the koff (usually the rate constant with which the complex falls apart) in experiment [8] was 3.47e-05 s⁻¹ and 3.75e-05 s⁻¹. Besides, in experiment [8], the kon (usually the rate constant with which the complex forms) is 252000 M⁻¹ s⁻¹ and 261000 M⁻¹ s⁻¹. Further, the binding result in experiment [9] is on record as “binds”; in experiment [10], “binds”; in [11], “binds”; in experiment [13], “no binding (tested: 10 µg/mL)”; with IL-2, “no binding (tested: 10 µg/mL)”; in the experiment with IL-4, “no binding (tested: 10 µg/mL)”. In addition, the binding result in the experiment with IL-7, with IL-9 and with IL-21 was “no binding (tested: 10 µg/mL)” throughout. In [3], the “IC 50 (NK-92) in pM” value is 18.2 pM. Moreover, the “Max IC50 (pM), NK-92 proliferation assay” value in experiment [12] turned out to be 22 pM. Further, the “Mean IC50 (pM), NK-92 proliferation assay” value in experiment [12] is 14.7 pM. Besides, the “Min IC50 (pM), NK-92 proliferation assay” value in experiment [12] amounted to 10.2 pM.

B7: Antibody 70f (antibody, human IgG4 S228P, lambda)
heavy: QVQLQESGPGLVKPSGTLSLTCAVSGGSISSSNWWSWVRQPPGKGLEWIGEIYHYGYTNYNPSLKSRVTISVDKSKNQFSLKLSSVTAADTAVYYCAREGIGWPSFDYWGQGTLVTVSSASTKGPSVFPLAPCSRSTSESTAALGCLVKDYFPEPVTVSWNSGALTSGVHTFPAVLQSSGLYSLSSVVTVPSSSLGTKTYTCNVDHKPSNTKVDKRVESKYGPPCPPCPAPEFLGGPSVFLFPPKPKDTLYITREPEVTCVVVDVSQEDPEVQFNWYVDGVEVHNAKTKPREEQFNSTYRVVSVLTVLHQDWLNGKEYKCKVSNKGLPSSIEKTISKAKGQPREPQVYTLPPSQEEMTKNQVSLTCLVKGFYPSDIAVEWESNGQPENNYKTTPPVLDSDGSFFLYSRLTVDKSRWQEGNVFSCSVMHEALHNHYTQKSLSLSLG
light: B6 light
As for B7, the equilibrium dissociation constant (Kd) in experiment [8] was 0.171 nM and 0.173 nM; in experiment [14], 0.43 nM. Also, the koff in experiment [8] is 4.44e-05 s⁻¹ and 4.32e-05 s⁻¹. In addition, the association rate constant (kon) in [8] is 249000 M⁻¹ s⁻¹ and 260000 M⁻¹ s⁻¹. The “Max IC50 (pM), NK-92 proliferation assay” value in experiment [12] turned out to be 29.8 pM. Also, the “Mean IC50 (pM), NK-92 proliferation assay” value in experiment [12] stood at 14.6 pM. Moreover, the “Min IC50 (pM), NK-92 proliferation assay” value in experiment [12] was 7.3 pM. In addition, the binding result (in [13]; in the experiment with IL-2; with IL-4; with IL-7; in the experiment with IL-9; with IL-21) was “no binding (tested: 10 µg/mL)” in each case.
